{"source": "patent US12195506B2", "about": "“Immunotherapy with A*01 restricted peptides and combination of peptides against cancers and related methods” (Immatics Biotechnologies GmbH, priority 2018, dated 2025)", "data": [{"target": "HLA-A*01:01 (Homo sapiens, UniProt P04439, A114D/A174V/A182V/D101N/D185E/E176A/E190D/L180R/Q94H/R68K/S129P/T187R/V100A/V91M/W191G)", "test": "MHC binding assay: UV-ligand exchange, ELISA of stabilized MHC complexes (peptide exchange yield)", "details": "binding to HLA-A*01:01, UV-ligand exchange", "from_the_text": "Candidate peptides for T cell based therapies according to the present invention were further tested for their MHC binding capacity (affinity). The individual peptide-MHC complexes were produced by UV-ligand exchange, where a UV-sensitive peptide is cleaved upon UV-irradiation and exchanged with the peptide of interest as analyzed. Only peptide candidates that can effectively bind and stabilize the peptide-receptive MHC molecules prevent dissociation of the MHC complexes. To determine the yield of the exchange reaction, an ELISA was performed based on the detection of the light chain (β2m) of stabilized MHC complexes. The assay was performed as generally described in Rodenko et al. (Rodenko et al., 2006)\n96 well MAXISorp plates (NUNC) were coated over night with 2 ug/ml streptavidin in PBS at room temperature, washed 4× and blocked for 1 h at 37° C. in 2% BSA containing blocking buffer. Refolded HLA-A*02:01/MLA-001 monomers served as standards, covering the range of 15-500 ng/ml. Peptide-MHC monomers of the UV-exchange reaction were diluted 100-fold in blocking buffer. Samples were incubated for 1 h at 37° C., washed four times, incubated with 2 ug/ml HRP conjugated anti-β2m for 1 h at 37° C., washed again and detected with TMB solution that is stopped with […]. Absorption was measured at 450 nm.", "values": [{"substance": "173 (QSTTGVSHY; listed as Homo sapiens) [compound 173]", "Peptide exchange": "+++ (>50 = +++)"}, {"substance": "307 (DTDDRELRY; listed as Homo sapiens) [compound 307]", "Peptide exchange": "+++ (>50 = +++)"}, {"substance": "186 (AVSSGLFFY; listed as Homo sapiens) [compound 186]", "Peptide exchange": "++ (>20% = ++)"}, {"substance": "233 (RINSATGQY; listed as Homo sapiens) [compound 233]", "Peptide exchange": "++ (>20% = ++)"}, {"substance": "279 (LMTVLLKY; listed as Homo sapiens) [compound 279]", "Peptide exchange": "+++ (>50 = +++)"}, {"substance": "370 (RLSTIRHLY; listed as Homo sapiens) [compound 370]", "Peptide exchange": "+++ (>50 = +++)"}, {"substance": "93 (HLKILSPIY; listed as Homo sapiens) [compound 93]", "Peptide exchange": "+++ (>50 = +++)"}, {"substance": "298 (KFDVINHYF; listed as Homo sapiens) [compound 298]", "Peptide exchange": "++ (>20% = ++)"}, {"substance": "113 (ASCRSSAEY; listed as Homo sapiens) [compound 113]", "Peptide exchange": "++++ (>75% = ++++)"}, {"substance": "140 (SQHIFTVSY; listed as Homo sapiens) [compound 140]", "Peptide exchange": "++ (>20% = ++)"}, {"substance": "331 (YLYQAPGSLALY; listed as Homo sapiens) [compound 331]", "Peptide exchange": "++++ (>75% = ++++)"}, {"substance": "210 (LLEADPFLKY; listed as Homo sapiens) [compound 210]", "Peptide exchange": "++++ (>75% = ++++)"}, {"substance": "292 (VLDFAPPGASAY; listed as Homo sapiens) [compound 292]", "Peptide exchange": "++++ (>75% = ++++)"}, {"substance": "277 (LPAPGFLFY; listed as Homo sapiens) [compound 277]", "Peptide exchange": "++ (>20% = ++)"}, {"substance": "360 (RFDDINQEF; listed as Homo sapiens) [compound 360]", "Peptide exchange": "+ (>10% =+)"}, {"substance": "313 (VTDGTHTDFY; listed as Homo sapiens) [compound 313]", "Peptide exchange": "+++ (>50 = +++)"}, {"substance": "285 (VLPHHSEGACVY; listed as Homo sapiens) [compound 285]", "Peptide exchange": "+++ (>50 = +++)"}, {"substance": "29 (TLEDLDNLYNY; listed as Homo sapiens) [compound 29]", "Peptide exchange": "+++ (>50 = +++)"}, {"substance": "367 (LTDTGYLQLY; listed as Homo sapiens) [compound 367]", "Peptide exchange": "++++ (>75% = ++++)"}, {"substance": "139 (PVHDSVGVTY; listed as Homo sapiens) [compound 139]", "Peptide exchange": "++ (>20% = ++)"}, {"substance": "200 (SLPEFGLTY; listed as Homo sapiens) [compound 200]", "Peptide exchange": "++ (>20% = ++)"}, {"substance": "201 (SLPEFGLTYY; listed as Homo sapiens) [compound 201]", "Peptide exchange": "++ (>20% = ++)"}, {"substance": "353 (RLNGSVASY; listed as Homo sapiens) [compound 353]", "Peptide exchange": "++ (>20% = ++)"}, {"substance": "243 (LTSEDTGAY; listed as Homo sapiens) [compound 243]", "Peptide exchange": "+++ (>50 = +++)"}, {"substance": "25 (AMMQEAQLAY; listed as Homo sapiens) [compound 25]", "Peptide exchange": "+++ (>50 = +++)"}, {"substance": "276 (QITSFASGTSY; listed as Homo sapiens) [compound 276]", "Peptide exchange": "+++ (>50 = +++)"}, {"substance": "106 (EVVEGKEWGSFY; listed as Homo sapiens) [compound 106]", "Peptide exchange": "+++ (>50 = +++)"}, {"substance": "14 (QSEKEPGQQY; listed as Homo sapiens) [compound 14]", "Peptide exchange": "+++ (>50 = +++)"}, {"substance": "30 (VTTDKPRAY; listed as Homo sapiens) [compound 30]", "Peptide exchange": "++ (>20% = ++)"}, {"substance": "142 (IEKFAVLY; listed as Homo sapiens) [compound 142]", "Peptide exchange": "+++ (>50 = +++)"}, {"substance": "215 (DTLEAATSLY; listed as Homo sapiens) [compound 215]", "Peptide exchange": "++ (>20% = ++)"}, {"substance": "2 (VDPIGHLY; listed as Homo sapiens) [compound 2]", "Peptide exchange": "++ (>20% = ++)"}, {"substance": "100 (TTSSAISWILY; listed as Homo sapiens) [compound 100]", "Peptide exchange": "+++ (>50 = +++)"}, {"substance": "104 (ITDTLIHL; listed as Homo sapiens) [compound 104]", "Peptide exchange": "++ (>20% = ++)"}, {"substance": "135 (TFDKQIVLL; listed as Homo sapiens) [compound 135]", "Peptide exchange": "++ (>20% = ++)"}, {"substance": "114 (AVAAAAGASLY; listed as Homo sapiens) [compound 114]", "Peptide exchange": "++ (>20% = ++)"}, {"substance": "315 (VLKIELETY; listed as Homo sapiens) [compound 315]", "Peptide exchange": "+++ (>50 = +++)"}, {"substance": "303 (GFGGLSSQGVYY; listed as Homo sapiens) [compound 303]", "Peptide exchange": "+++ (>50 = +++)"}, {"substance": "159 (RQAPGPARDY; listed as Homo sapiens) [compound 159]", "Peptide exchange": "++ (>20% = ++)"}, {"substance": "284 (TCSHTFVYY; listed as Homo sapiens) [compound 284]", "Peptide exchange": "++ (>20% = ++)"}, {"substance": "178 (TQRTSFQFY; listed as Homo sapiens) [compound 178]", "Peptide exchange": "++ (>20% = ++)"}, {"substance": "198 (KLTDYINANY; listed as Homo sapiens) [compound 198]", "Peptide exchange": "++ (>20% = ++)"}, {"substance": "381 (ETSFSTSHY; listed as Homo sapiens) [compound 381]", "Peptide exchange": "++++ (>75% = ++++)"}, {"substance": "379 (SLIIDDTEY; listed as Homo sapiens) [compound 379]", "Peptide exchange": "++ (>20% = ++)"}, {"substance": "97 (FPAPPAHWFY; listed as Homo sapiens) [compound 97]", "Peptide exchange": "++ (>20% = ++)"}, {"substance": "16 (NSDISIPEY; listed as Homo sapiens) [compound 16]", "Peptide exchange": "+++ (>50 = +++)"}, {"substance": "56 (VTEYAEEIYQY; listed as Homo sapiens) [compound 56]", "Peptide exchange": "+++ (>50 = +++)"}, {"substance": "4 (RIEAIRAEY; listed as Homo sapiens) [compound 4]", "Peptide exchange": "++ (>20% = ++)"}, {"substance": "15 (YLDSSKPAVY; listed as Homo sapiens) [compound 15]", "Peptide exchange": "+++ (>50 = +++)"}, {"substance": "98 (NFSDLVFTY; listed as Homo sapiens) [compound 98]", "Peptide exchange": "++ (>20% = ++)"}, {"substance": "86 (VDPASNTY; listed as Homo sapiens) [compound 86]", "Peptide exchange": "++ (>20% = ++)"}, {"substance": "248 (VTDIDELGK; listed as Homo sapiens) [compound 248]", "Peptide exchange": "+++ (>50 = +++)"}, {"substance": "341 (PANYLGKMTY; listed as Homo sapiens) [compound 341]", "Peptide exchange": "+++ (>50 = +++)"}, {"substance": "305 (YADLLIYTY; listed as Homo sapiens) [compound 305]", "Peptide exchange": "++++ (>75% = ++++)"}, {"substance": "180 (AQISDTGRY; listed as Homo sapiens) [compound 180]", "Peptide exchange": "++ (>20% = ++)"}, {"substance": "361 (FTAEEGQLY; listed as Homo sapiens) [compound 361]", "Peptide exchange": "+++ (>50 = +++)"}, {"substance": "130 (YIGLKGLYF; listed as Homo sapiens) [compound 130]", "Peptide exchange": "++ (>20% = ++)"}, {"substance": "267 (IVADDTVY; listed as Homo sapiens) [compound 267]", "Peptide exchange": "+++ (>50 = +++)"}, {"substance": "88 (KEVDPAGHSYI; listed as Homo sapiens) [compound 88]", "Peptide exchange": "++ (>20% = ++)"}, {"substance": "31 (VSDHLQAGMLGQY; listed as Homo sapiens) [compound 31]", "Peptide exchange": "+++ (>50 = +++)"}]}]}
